Measurements from paper PMC4888466.

Legend:
[1] = substrate: O=P(O)(O)O[C@H]1O[C@H](CO)[C@@H](O)[C@H](O)[C@H]1O; test: purified protein; type: biochemical, Caenorhabditis elegans; conditions: 1 mM UTP, 5 mM MgCl2, pH 7.5, 25°C
[2] = substrate: O=c1ccn([C@@H]2O[C@H](COP(=O)(O)OP(=O)(O)OP(=O)(O)O)[C@@H](O)[C@H]2O)c(=O)[nH]1; test: purified protein; type: biochemical, Caenorhabditis elegans; conditions: 1 mM Glc-1-P, 5 mM MgCl2, pH 7.5, 25°C

B1: UGP-1 (Caenorhabditis elegans) (protein)
chain: MSNDQLKSKLREFFDRQPDQSEKAHQDSKIFEVLYSQFLENQHCIDWNSWKFLEEKHQVTLKDLEPFDKSRFNILNKLAVIKLNGGLGTTMGCSKAKSLVEVREGYTFMDLAVLEHQKMCEAHNVDTPLYLMNSFYTDEDTKKYLAEKGYSNVKTFVQSKCPRLDAETKLPIEDENEDWGDDAWCPPGHGNIFQSLQNSGVLDQLLADGREIIFVSNIDNTGANTDLQIVQLMLDKNVDYIMECTPKTQVDVKGGTLIDIGGRMMHLEMPQVPAENLPDFCSTKVFKIFNTNNIYVNLKAVKKLLPDIKSEIIVNKKTIRSREVLQLEFSIGGCIKNFDNALCVHVERKRFRPVKNLGDLLSLRSTLCDLDHSTFKVHHNHELGAPPVISLDPSIYNSVEVVDLKFPHPLVMDNCSEFAVVGDVTFGKNVKLSGKVTVNGKTESPGVVPDGTVLKDQEYIAE
Q: B1 was tested. Which Km [1] did it give?
A: Its Km is 77.65 ± 7.73 µM.

Q: What about the kcat [1] of the same protein?
A: Its kcat is 23 ± 0.65 s⁻¹.

Q: And the kcat/Km [1]?
A: The kcat/Km was 300000 ± 31000 M⁻¹ s⁻¹.

Q: And the Km [2]?
A: Its Km is 13.85 ± 2.95 µM.

Q: And the kcat [2]?
A: The kcat was 20 ± 0.7 s⁻¹.

Q: What about the kcat/Km [2] of the same protein?
A: The kcat/Km was 1.45e+06 ± 310000 M⁻¹ s⁻¹.
